# Results published in patent US10835594B2, “Type III secretion injectisome proteins for treatment and prevention of chlamydial infections” (priority 2014, dated 2020).
# B1: Cpn0803 protein: Chlamydia pneumoniae type III secretion-associated protein, SEQ ID NO: 1 (protein, listed as Chlamydia pneumoniae)
# chain: MAAKTKTLELEDNVFLLLEGNLKRIFATPIGYTTFREFQNVVFNCANGQQEIANFFFEMLINGKLTQELAPQQKQAAHSLIAEFMMPIRVAKDIHERGEFINFITSDMLTQQERCIFLNRLARVDGQEFLLMTDVQNTCHLIRHLLARLLEAQKNPVGEKNLQEIQEEITSLKNHFDELTKALQ
# System: murine C. trachomatis (Cmu)
# Assay: Immunization of mice and live intravaginal challenge with Cmu
# Set-up: species or system BALB/c mice
# Conditions: mouse, in vivo
molecule,measurement,setting,value
B1,immune response protective against live challenge,,protective against a live challenge with Chlamydia
same,immune response protective against live challenge,listed as Cpn0803,Protective Against a Live Challenge with Chlamydia
